The results in this text go back to patent US20170088617A1 (Boehringer Ingelheim, published 2017).

Substitutions are numbered along the chain they refer to.

Experiment [1] deals with T1, human CD33 on the AML-derived HL60 cell line (human, UniProt P20138 18-364).
T1 construct: whole, on cells; also called CD33 expressing HL60 cell line
The experiment is described as follows: FACS Scatchard analysis on HL60 cells. Here is the method: (§1) Fourteen CD33 binding agents (fully human monoclonal antibodies as listed in table 1 as No. 1-14, respectively) to human and cynomolgus CD33 were determined by FACS Scatchard analysis as described in Brockhoff et al., (Cytometry. 1994 Sep. 1; 17(1):75-83) on CD33 expressing cells (AML-derived HL60 cell line, recombinant HEK293-cynomolgusCD33 cell line). Briefly, dilutions of a CD33 binding agent were prepared in a 96 well plate starting with 100-400 nM in the first well (80 pil), followed by 11 dilution steps (1:2, 40+40 μl). 50 μl of CD33 binding agent dilutions are added to FACS tubes, 150 μl cells (0.8×10⁶/ml=1.2×10⁵ cells/tube) are added to each FACS tube. Cells were gently mixed and incubated for 1 h on ice. Thereafter 50 μl FITC conjugated secondary antibody (concentration 15 μg/ml; mouse mAb anti-human IgG) was added, mixed, and incubated for 30 min. on ice. 4 ml PBS ph7.2 containing 0.02% […] were added thereafter, cells were pelleted and resuspended in 300 μl PBS pH 7.2 and subjected to FACS analysis using a BD FACS Canto. All experimental steps were performed on wet ice, all CD33 binding agent dilutions were made in PBS/0.5% BSA+0.02% acid. FACS calibration was performed using Quantum FITC MESF (Premix) Beads (Bangs Laboratories). All samples were measured using the same FACS parameters. […] A regression line was drawn through the resulting data points, the slope of this line corresponds to the negative value of the association constant.

Experiment [2] has as its target T2, cynomolgus CD33 on the recombinant HEK293-cynomolgusCD33 cell line (cynomolgus, UniProt A0A7N9ICR5 17-359).
T2 construct: whole, on cells
In words: FACS Scatchard analysis on HEK293-cynomolgusCD33 cells. Here is the method:
as §1

As a reminder, the Kd is the constant that tells how readily two partners part at equilibrium.

T1 sequence (P20138 18-364): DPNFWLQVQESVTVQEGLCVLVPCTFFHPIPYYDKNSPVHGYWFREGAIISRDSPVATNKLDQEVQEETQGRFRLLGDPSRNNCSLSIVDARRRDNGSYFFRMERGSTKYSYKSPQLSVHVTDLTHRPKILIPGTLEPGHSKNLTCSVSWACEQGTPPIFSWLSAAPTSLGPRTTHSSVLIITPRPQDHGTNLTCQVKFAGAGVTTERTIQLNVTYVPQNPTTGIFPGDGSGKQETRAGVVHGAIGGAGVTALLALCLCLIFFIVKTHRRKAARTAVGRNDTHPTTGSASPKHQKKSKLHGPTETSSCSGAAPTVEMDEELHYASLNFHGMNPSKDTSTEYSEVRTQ

B1: 280-03-08 (antibody, human IgG1, kappa, V domains shown)
VH: QVQLVQSGAEVKKPGSSVKVSCKASGGTFSDYAISWVRQAPGQGLEWMGRIIPILGVANYAQKFQGRVTITADKSTRTAYMELSSLRSEDTAVYYCARNWADAFDIWGQGTMVTVSS
VL: DIQLTQSPSSLSASVGDRVTITCRASQGISSVLAWYQQKPGKAPKLLIYDASSLESGVPSRFSGSGSGTDFTLTISSLQPEDFATYYCQQFNSSITFGQGTKLEIKR
notes: Fully human monoclonal antibody; also called No 1; Clone ID# 280-03-08
B1: the figures for the Kd in experiment [1] and in experiment [2] were 0.3 nM and 0.03 nM, respectively.

B2: 280-61-07 (antibody, human IgG1, kappa, V domains shown)
VH: QVQLVQSGAEVKKPGSSVKVACKASGDTFSSYAISWVRQAPGQGLEWMGRVIPIIGIASYAQNFEGRVTITADRSTSTAYMALSSLRSEDTAVYYCARNWADAFDIWGQGTMVTVSS
VL: B1 VL with D50A
notes: Fully human monoclonal antibody; also called No 9; Clone ID# 280-61-07
With B2, the results for the equilibrium dissociation constant (Kd) in experiment [1] and in experiment [2] were 0.3 nM and 0.4 nM, respectively.

B3: 280-34-02 (antibody, human IgG1, kappa, V domains shown)
VH: B1 VH with Q3E, K12Q, G27D, D31S, L55V, V57I, A58V, Q62E, T76M, R77S
VL: B1 VL with V32A, S53R, A84T, I95Y
notes: Fully human monoclonal antibody; also called No 6; Clone ID# 280-34-02
Regarding B3, the results for the Kd in experiment [1] and in experiment [2] were 0.3 nM and 0.5 nM, respectively.

B4: 280-50-01 (antibody, human IgG1, kappa, V domains shown)
VH: B2 VH with E65Q
VL: B1 VL with D50A, L103V
notes: Fully human monoclonal antibody; also called No 7; Clone ID# 280-50-01
With B4, the dissociation constant (Kd) in experiment [1] was found to be 0.3 nM; in experiment [2], 0.5 nM.

B5: 283-07-03 (antibody, human IgG1, kappa, V domains shown)
VH: QVELVQSGAEVKKPGSSVKVSCKASGGTFSSYAISWVRQAPGQGLEWMGRIIPILGMANYAQKFQGRVTITADKSTYTAYMELSSLRSEDTAVYYCAREGGVDWYFDLWGRGTLVTVSS
VL: B1 VL with V32A, L46F, L47M
notes: Fully human monoclonal antibody; also called No 12; Clone ID# 283-07-03
For the molecule B5, the results for the equilibrium dissociation constant (Kd) in experiment [1] and in experiment [2] were 0.3 nM and 2.1 nM, respectively.

B6: 280-50-01(mut) (antibody, human IgG1, kappa, V domains shown)
VH: B2 VH with E65Q
VL: B1 VL with D50A, N92D, L103V
notes: Fully human monoclonal antibody; also called No 8
Regarding B6, the Kd stood at 0.4 nM in experiment [1] and 1.7 nM in experiment [2].

B7: 283-11-03 (antibody, human IgG1, kappa, V domains shown)
VH: B5 VH with E3Q, V18M, G26E, G27D, L55I, M57I, A58V, Y77C, S84T
VL: B1 VL with V32A, L46F, L47M
notes: Fully human monoclonal antibody; also called No 13; Clone ID# 283-11-03
For the molecule B7, the Kd in experiment [2] is 0.6 nM.

B8: 283-14-01 (antibody, human IgG1, kappa, V domains shown)
VH: B5 VH with E3Q, M57I
VL: B1 VL with V32A, L46F, L47M
notes: Fully human monoclonal antibody; also called No 14; Clone ID# 283-14-01
For B8, the Kd in experiment [2] turned out to be 2.3 nM.

B9: 280-21-09 (antibody, human IgG1, kappa, V domains shown)
VH: B2 VH with A21S, V51I, G56N, E65Q, R74K, S77N, A82E
VL: B1 VL with V32A
notes: Fully human monoclonal antibody; also called No 2; Clone ID# 280-21-09
Consider B9, for which the equilibrium dissociation constant (Kd) in experiment [2] is 0.3 nM.

B10: 283-05-01 (antibody, human IgG1, kappa, V domains shown)
VH: B5 VH with G26E, G27D, L55I, M57I, A58V
VL: B1 VL with V32A, L46F, L47M
notes: Fully human monoclonal antibody; also called No 11; Clone ID# 283-05-01
As for B10, the Kd in experiment [2] worked out at 1.1 nM.

B11: 283-03-03 (antibody, human IgG1, kappa, V domains shown)
VH: B5 VH with G56D
VL: B1 VL with V32A, L46F, L47M
notes: Fully human monoclonal antibody; also called No 10; Clone ID# 283-03-03
Take B11: the equilibrium dissociation constant (Kd) in experiment [2] came to 1.9 nM.

B12: 280-29-12 (antibody, human IgG1, kappa, V domains shown)
VH: B1 VH with A9T, A24V, G27D, D31S, L55I, V57I, R77S, N99H, A101L
VL: B1 VL with V32A, Y36S
notes: Fully human monoclonal antibody; also called No 3; Clone ID# 280-29-12
With B12, in experiment [2], the dissociation constant Kd was found to be 0.6 nM.

B13: 280-31-01(mut) (antibody, human IgG1, kappa, V domains shown)
VH: B1 VH with N59D
VL: B1 VL with N92D
notes: Fully human monoclonal antibody; also called No 5
With B13, the Kd in experiment [2] is 0.5 nM.

B14: 280-31-01 (antibody, human IgG1, kappa, V domains shown)
VH: B1 VH with N59D
VL: B1 VL
notes: Fully human monoclonal antibody; also called No 4; Clone ID# 280-31-01
Turning to B14, the Kd in experiment [2] was 0.3 nM.
